Laboratory results from the supplement of paper PMC10567573.

B1: PLK2 (parent)
chain: YAELGQCSVFPATDAPEQFISQVT
B2: ELF3 (parent)
chain: LSKEYWDCLEGKKSKHAPRGTHLW

Variants of: B1
Experiment: protein stability index of a GFP-peptide fusion (GPS, HEK-293T) (PSI 1-6); higher = more stable
Settings: c terminus: a fixed tail appended
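Further: lentivirally expressed fusions sorted by FACS into six bins by GFP to DsRed ratio, PSI derived from sequencing read proportions per bin multiplied by bin number.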

Variant	protein stability index
GAELGQCSVFPATDAPEQFISQVT [Y1G]	4.39
LAELGQCSVFPATDAPEQFISQVT [Y1L]	3.54
NAELGQCSVFPATDAPEQFISQVT [Y1N]	4.46
AAELGQCSVFPATDAPEQFISQVT [Y1A]	4.32
HAELGQCSVFPATDAPEQFISQVT [Y1H]	4
PAELGQCSVFPATDAPEQFISQVT [Y1P]	4.5
QAELGQCSVFPATDAPEQFISQVT [Y1Q]	4.7
IAELGQCSVFPATDAPEQFISQVT [Y1I]	3.44
DAELGQCSVFPATDAPEQFISQVT [Y1D]	4.58
RAELGQCSVFPATDAPEQFISQVT [Y1R]	3.78
KAELGQCSVFPATDAPEQFISQVT [Y1K]	4.16
CAELGQCSVFPATDAPEQFISQVT [Y1C]	3.13
FAELGQCSVFPATDAPEQFISQVT [Y1F]	2.24
MAELGQCSVFPATDAPEQFISQVT [Y1M]	3.63
EAELGQCSVFPATDAPEQFISQVT [Y1E]	4.52

Variants of: B2
Experiment: as above
Settings: c terminus: a fixed tail appended

Variant	protein stability index
LSKEYWDCLEGKKSKHAPRGQHLW [T21Q]	2.78
LSKEYWDCLEGKKSKHAPRGCHLW [T21C]	2.22
LSKEYWDCLEGKKSKHAPRGPHLW [T21P]	2.57
LSKEYWDCLEGKKSKHAPRGIHLW [T21I]	2.19
LSKEYWDCLEGKKSKHAPRGAHLW [T21A]	3.4
LSKEYWDCLEGKKSKHAPRGFHLW [T21F]	2.05
LSKEYWDCLEGKKSKHAPRGMHLW [T21M]	2.32
LSKEYWDCLEGKKSKHAPRGRHLW [T21R]	2.78
LSKEYWDCLEGKKSKHAPRGSHLW [T21S]	2.24
LSKEYWDCLEGKKSKHAPRGVHLW [T21V]	1.8
LSKEYWDCLEGKKSKHAPRGKHLW [T21K]	3.08
LSKEYWDCLEGKKSKHAPRGEHLW [T21E]	3.37
LSKEYWDCLEGKKSKHAPRGGHLW [T21G]	2.54
LSKEYWDCLEGKKSKHAPRGYHLW [T21Y]	2.37
LSKEYWDCLEGKKSKHAPRGDHLW [T21D]	3.45
LSKEYWDCLEGKKSKHAPRGLHLW [T21L]	2.02
LSKEYWDCLEGKKSKHAPRGWHLW [T21W]	2.04
LSKEYWDCLEGKKSKHAPRGNHLW [T21N]	3.1
LSKEYWDCLEGKKSKHAPRGHHLW [T21H]	2.66
LSKEYWDCLEGKKSKHAPRGTHCW [L23C]	3.11
LSKEYWDCLEGKKSKHAPRGTHEW [L23E]	4.03
LSKEYWDCLEGKKSKHAPRGTHIW [L23I]	2.66
LSKEYWDCLEGKKSKHAPRGTHSW [L23S]	3.41
LSKEYWDCLEGKKSKHAPRGTHPW [L23P]	3.13
LSKEYWDCLEGKKSKHAPRGTHRW [L23R]	3.25

Variant	protein stability index
LSKEYWDCLEGKKSKHAPRGTHNW [L23N]	3.29
LSKEYWDCLEGKKSKHAPRGTHKW [L23K]	3.29
LSKEYWDCLEGKKSKHAPRGTHAW [L23A]	3.24
LSKEYWDCLEGKKSKHAPRGTHQW [L23Q]	3.59
LSKEYWDCLEGKKSKHAPRGTHGW [L23G]	3.42
LSKEYWDCLEGKKSKHAPRGTHHW [L23H]	3.42
LSKEYWDCLEGKKSKHAPRGTHYW [L23Y]	2.85
LSKEYWDCLEGKKSKHAPRGTHFW [L23F]	2.93
LSKEYWDCLEGKKSKHAPRGTHVW [L23V]	2.93
LSKEYWDCLEGKKSKHAPRGTHDW [L23D]	4.24
LSKEYWDCLEGKKSKHAPRGTHTW [L23T]	3.29
LSKEYWDCLEGKKSKHAPRGTHWW [L23W]	2.71
LSKEYWDCLEGKKSKHAPRGTHMW [L23M]	3.27
LSKEYWDCLEGKKSKMAPRGTHLW [H16M]	2.3
LSKEYWDCLEGKKSKGAPRGTHLW [H16G]	2.88
LSKEYWDCLEGKKSKRAPRGTHLW [H16R]	2.4
LSKEYWDCLEGKKSKCAPRGTHLW [H16C]	2.64
LSKEYWDCLEGKKSKIAPRGTHLW [H16I]	2.87
LSKEYWDCLEGKKSKPAPRGTHLW [H16P]	2.65
LSKEYWDCLEGKKSKDAPRGTHLW [H16D]	3.25
LSKEYWDCLEGKKSKYAPRGTHLW [H16Y]	3.54
LSKEYWDCLEGKKSKSAPRGTHLW [H16S]	2.52
LSKEYWDCLEGKKSKTAPRGTHLW [H16T]	3.43
LSKEYWDCLEGKKSKWAPRGTHLW [H16W]	2.24
LSKEYWDCLEGKKSKKAPRGTHLW [H16K]	3.05

Variant	protein stability index
LSKEYWDCLEGKKSKLAPRGTHLW [H16L]	2.68
LSKEYWDCLEGKKSKEAPRGTHLW [H16E]	3.14
LSKEYWDCLEGKKSKVAPRGTHLW [H16V]	2.94
LSKEYWDCLEGKKSKQAPRGTHLW [H16Q]	2.86
LSKEYWDCLEGKKSKAAPRGTHLW [H16A]	2.72
LSKEYWDCLEGKKSKFAPRGTHLW [H16F]	2.64
LSKEYWDCLEGKKSKNAPRGTHLW [H16N]	3.2
LSKEYWDCLEGKKSKHGPRGTHLW [A17G]	3.65
LSKEYWDCLEGKKSKHKPRGTHLW [A17K]	2.86
LSKEYWDCLEGKKSKHEPRGTHLW [A17E]	3.58
LSKEYWDCLEGKKSKHVPRGTHLW [A17V]	3.02
LSKEYWDCLEGKKSKHCPRGTHLW [A17C]	3.33
LSKEYWDCLEGKKSKHDPRGTHLW [A17D]	2.69
LSKEYWDCLEGKKSKHMPRGTHLW [A17M]	3.06
LSKEYWDCLEGKKSKHRPRGTHLW [A17R]	2.38
LSKEYWDCLEGKKSKHHPRGTHLW [A17H]	2.5
LSKEYWDCLEGKKSKHTPRGTHLW [A17T]	2.86
LSKEYWDCLEGKKSKHIPRGTHLW [A17I]	3.06
LSKEYWDCLEGKKSKHLPRGTHLW [A17L]	2.45
LSKEYWDCLEGKKSKHSPRGTHLW [A17S]	3.12
LSKEYWDCLEGKKSKHFPRGTHLW [A17F]	2.78
LSKEYWDCLEGKKSKHYPRGTHLW [A17Y]	2.65
LSKEYWDCLEGKKSKHQPRGTHLW [A17Q]	3.4
LSKEYWDCLEGKKSKHWPRGTHLW [A17W]	2.4
LSKEYWDCLEGKKSKHPPRGTHLW [A17P]	3.21

Variant	protein stability index
LSKEYWDCLEGKKSKHNPRGTHLW [A17N]	2.99
LSKEYWDCLEGKKSKHAPRGTHLN [W24N]	3.64
LSKEYWDCLEGKKSKHAPRGTHLK [W24K]	4.11
LSKEYWDCLEGKKSKHAPRGTHLP [W24P]	4.15
LSKEYWDCLEGKKSKHAPRGTHLS [W24S]	4.08
LSKEYWDCLEGKKSKHAPRGTHLI [W24I]	2.94
LSKEYWDCLEGKKSKHAPRGTHLT [W24T]	4.05
LSKEYWDCLEGKKSKHAPRGTHLR [W24R]	3.54
LSKEYWDCLEGKKSKHAPRGTHLD [W24D]	4.02
LSKEYWDCLEGKKSKHAPRGTHLQ [W24Q]	3.8
LSKEYWDCLEGKKSKHAPRGTHLY [W24Y]	2.9
LSKEYWDCLEGKKSKHAPRGTHLH [W24H]	3.98
LSKEYWDCLEGKKSKHAPRGTHLE [W24E]	4.33
LSKEYWDCLEGKKSKHAPRGTHLV [W24V]	2.96
LSKEYWDCLEGKKSKHAPRGTHLM [W24M]	3.83
LSKEYWDCLEGKKSKHAPRGTHLG [W24G]	4.07
LSKEYWDCLEGKKSKHAPRGTHLC [W24C]	3.8
LSKEYWDCLEGKKSKHAPRGTHLL [W24L]	3.3
LSKEYWDCLEGKKSKHAPRGTHLF [W24F]	3.6
LSKEYWDCLEGKKSKHAPRGTHLA [W24A]	3.96
LSKEYWDCLEGKKSKHAPQGTHLW [R19Q]	3.79
LSKEYWDCLEGKKSKHAPGGTHLW [R19G]	2.68
LSKEYWDCLEGKKSKHAPPGTHLW [R19P]	2.64
LSKEYWDCLEGKKSKHAPSGTHLW [R19S]	3.29
LSKEYWDCLEGKKSKHAPKGTHLW [R19K]	3.06

Variant	protein stability index
LSKEYWDCLEGKKSKHAPVGTHLW [R19V]	2.78
LSKEYWDCLEGKKSKHAPLGTHLW [R19L]	2.27
LSKEYWDCLEGKKSKHAPTGTHLW [R19T]	2.85
LSKEYWDCLEGKKSKHAPYGTHLW [R19Y]	2.18
LSKEYWDCLEGKKSKHAPAGTHLW [R19A]	3.06
LSKEYWDCLEGKKSKHAPIGTHLW [R19I]	2.38
LSKEYWDCLEGKKSKHAPCGTHLW [R19C]	2.6
LSKEYWDCLEGKKSKHAPWGTHLW [R19W]	2.58
LSKEYWDCLEGKKSKHAPNGTHLW [R19N]	2.83
LSKEYWDCLEGKKSKHAPMGTHLW [R19M]	2.83
LSKEYWDCLEGKKSKHAPHGTHLW [R19H]	2.66
LSKEYWDCLEGKKSKHAPDGTHLW [R19D]	3.21
LSKEYWDCLEGKKSKHAPFGTHLW [R19F]	2.25
LSKEYWDCLEGKKSKHAPEGTHLW [R19E]	3.63
LSKEYWDCLEGKKSKHAGRGTHLW [P18G]	2.46
LSKEYWDCLEGKKSKHAFRGTHLW [P18F]	2.97
LSKEYWDCLEGKKSKHAERGTHLW [P18E]	3.01
LSKEYWDCLEGKKSKHATRGTHLW [P18T]	3.16
LSKEYWDCLEGKKSKHASRGTHLW [P18S]	3.13
LSKEYWDCLEGKKSKHAWRGTHLW [P18W]	2.24
LSKEYWDCLEGKKSKHAKRGTHLW [P18K]	3.39
LSKEYWDCLEGKKSKHARRGTHLW [P18R]	2.34
LSKEYWDCLEGKKSKHAHRGTHLW [P18H]	3.24
LSKEYWDCLEGKKSKHAYRGTHLW [P18Y]	2.73
LSKEYWDCLEGKKSKHANRGTHLW [P18N]	3.36

Variant	protein stability index
LSKEYWDCLEGKKSKHAIRGTHLW [P18I]	2.6
LSKEYWDCLEGKKSKHAVRGTHLW [P18V]	2.79
LSKEYWDCLEGKKSKHADRGTHLW [P18D]	3
LSKEYWDCLEGKKSKHALRGTHLW [P18L]	2.43
LSKEYWDCLEGKKSKHAARGTHLW [P18A]	2.68
LSKEYWDCLEGKKSKHACRGTHLW [P18C]	2.53
LSKEYWDCLEGKKSKHAMRGTHLW [P18M]	2.31
LSKEYWDCLEGKKSKHAQRGTHLW [P18Q]	2.96
LSKEYWDCLEGKKSKHAPRHTHLW [G20H]	2.53
LSKEYWDCLEGKKSKHAPRQTHLW [G20Q]	3.06
LSKEYWDCLEGKKSKHAPRETHLW [G20E]	2.59
LSKEYWDCLEGKKSKHAPRITHLW [G20I]	1.54
LSKEYWDCLEGKKSKHAPRRTHLW [G20R]	2.64
LSKEYWDCLEGKKSKHAPRATHLW [G20A]	2.45
LSKEYWDCLEGKKSKHAPRKTHLW [G20K]	2.59
LSKEYWDCLEGKKSKHAPRVTHLW [G20V]	2.11
LSKEYWDCLEGKKSKHAPRNTHLW [G20N]	2.74
LSKEYWDCLEGKKSKHAPRFTHLW [G20F]	1.75
LSKEYWDCLEGKKSKHAPRPTHLW [G20P]	2.72
LSKEYWDCLEGKKSKHAPRDTHLW [G20D]	2.96
LSKEYWDCLEGKKSKHAPRWTHLW [G20W]	1.94
LSKEYWDCLEGKKSKHAPRMTHLW [G20M]	2.44
LSKEYWDCLEGKKSKHAPRTTHLW [G20T]	2.64
LSKEYWDCLEGKKSKHAPRYTHLW [G20Y]	2.78
LSKEYWDCLEGKKSKHAPRLTHLW [G20L]	2.55

Variant	protein stability index
LSKEYWDCLEGKKSKHAPRCTHLW [G20C]	2.73
LSKEYWDCLEGKKSKHAPRSTHLW [G20S]	3.15
LSKEYWDCLEGKKSKHAPRGTFLW [H22F]	1.92
LSKEYWDCLEGKKSKHAPRGTKLW [H22K]	2.99
LSKEYWDCLEGKKSKHAPRGTILW [H22I]	2.42
LSKEYWDCLEGKKSKHAPRGTSLW [H22S]	3.1
LSKEYWDCLEGKKSKHAPRGTCLW [H22C]	2.45
LSKEYWDCLEGKKSKHAPRGTQLW [H22Q]	3.05
LSKEYWDCLEGKKSKHAPRGTALW [H22A]	2.56
LSKEYWDCLEGKKSKHAPRGTRLW [H22R]	2.85
LSKEYWDCLEGKKSKHAPRGTMLW [H22M]	2.37
LSKEYWDCLEGKKSKHAPRGTELW [H22E]	3.29
LSKEYWDCLEGKKSKHAPRGTVLW [H22V]	2.43
LSKEYWDCLEGKKSKHAPRGTPLW [H22P]	3.03
LSKEYWDCLEGKKSKHAPRGTNLW [H22N]	3.23
LSKEYWDCLEGKKSKHAPRGTTLW [H22T]	2.84
LSKEYWDCLEGKKSKHAPRGTGLW [H22G]	2.68
LSKEYWDCLEGKKSKHAPRGTLLW [H22L]	2.12
LSKEYWDCLEGKKSKHAPRGTWLW [H22W]	1.95
LSKEYWDCLEGKKSKHAPRGTDLW [H22D]	3.31
LSKEYWDCLEGKKSKHAPRGTYLW [H22Y]	2.51
LSKEYWDCLEGKKSWHAPRGTHLW [K15W]	2.93
LSKEYWDCLEGKKSYHAPRGTHLW [K15Y]	1.83
